Results from patent US20060148038A1 (INST NAT L DE LA SANTE ET DE LA RECH MEDICALE, published 2006).

Columns and labels:
D-Phe-Phe-Arg-CH3Cl [1] = test: inactivation kinetics: residual amidolytic activity on S2765 after incubation with D-FFR-CK, pseudo-first order, 25° C.
FX-recombinant (zymogen) = FX-recombinant (zymogen) (UniProt P00742)
GDX-AVG (zymogen) = GDX-AVG (zymogen) (UniProt P00742)
GDX-IFG (zymogen) = GDX-IFG (zymogen) (UniProt P00742)
GDX-IVG (zymogen) = GDX-IVG (zymogen) (UniProt P00742)
GDX-SFR (zymogen) = GDX-SFR (zymogen) (UniProt P00742)
GDX-SVG (zymogen) = GDX-SVG (zymogen) (UniProt P00742)
[2] = target: prothrombin (immunopurified)
[3] = target: T1, antithrombin (purified from human plasma) (human, UniProt P01008 33-464); test: inhibition kinetics, continuous S2765 hydrolysis, pseudo-first order, no heparin, 25° C.
T1 construct: mature
T1 sequence (P01008 33-464): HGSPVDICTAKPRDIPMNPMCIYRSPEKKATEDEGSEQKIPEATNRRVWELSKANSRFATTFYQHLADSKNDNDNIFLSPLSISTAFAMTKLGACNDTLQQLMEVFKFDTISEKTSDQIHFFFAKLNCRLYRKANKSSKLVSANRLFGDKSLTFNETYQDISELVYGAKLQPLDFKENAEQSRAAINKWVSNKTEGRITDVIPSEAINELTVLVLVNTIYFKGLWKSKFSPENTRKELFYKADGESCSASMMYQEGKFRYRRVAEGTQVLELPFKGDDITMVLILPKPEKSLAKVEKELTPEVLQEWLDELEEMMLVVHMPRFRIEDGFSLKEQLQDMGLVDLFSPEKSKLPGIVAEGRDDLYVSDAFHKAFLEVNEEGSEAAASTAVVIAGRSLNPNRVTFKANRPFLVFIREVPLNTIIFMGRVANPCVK
Excerpt: The method by continuous recording of the absorbance at 405 nm under pseudo-first order conditions is used to estimate (in the absence of heparin) the kₒₙ of the antithrombin for the activated form of the factor X derivative lacking Gla domain, and those of the activated forms of the GDX-IVG and GDX-IFG derivatives.

[4] = target: T1, antithrombin (purified from human …); test: inhibition kinetics, continuous S2765 hydrolysis, second-order (slow tight-binding) conditions, 2 units/ml heparin, 25° C.
Procedure: The kinetics are studied at 25° C., in kinetics buffer containing 1 mg/ml of protease-free bovine albumin and 2 units per ml of heparin; they are followed continuously by virtue of the presence in the reaction medium of 400 μM S2765. The reaction is carried out in a microcuvette in a volume of 600 μl, following the kinetics using a lambda 14 spectrophotometer. The reaction is triggered by adding the minimum amount of activated form of the factor X derivative which is compatible with a reliable signal (1 to 2.5 nM depending on the derivative, such that, in the absence of inhibitor, approximately 10% of the chromogenic substrate is hydrolysed in 60 minutes). For each activated form of factor X derivative, the reaction is carried out in the presence of two concentrations of antithrombin, equal to 2 and 3 times the concentration of the target. By plotting the absorbance at 405 nm as a function of time, a curve is obtained which makes it possible, by non-linear regression using equation 6, to estimate the second-order rate constant for the reaction. The kₒₙ of the antithrombin for the activated form of the factor X derivative is given by equation 5 which takes into consideration the competition introduced by the substrate during the kinetics.

[5] = target: T1, antithrombin (purified from human …); test: inhibition kinetics with antithrombin, no heparin
D-Phe-Phe-Arg-CH3Cl [6] = test: inactivation kinetics with D-FFR-CK, residual amidolytic activity on S2765
[7] = target: T1, antithrombin (purified from human …); test: inhibition kinetics, batchwise residual amidolytic activity on S2765, pseudo-first order, 2 units/ml heparin, 25° C.
Procedure: The method by batchwise sampling of aliquots is used to estimate the kₒₙ of the antithrombin for the activated form of the GDX-AVG derivative (in the presence and the absence of heparin).
The reaction is carried out in kinetics buffer containing 1 mg/ml of protease-free bovine albumin (SIGMA, St Quentin-Fallavier, France) and, when appropriate, 2 units per ml of heparin (KORDIA). In a reaction volume of 10 μl, a sufficient amount of the activated form of the GDX-AVG derivative (0.5 μM in the presence of heparin, 1 μM in its absence) is incubated in the presence of a large excess of antithrombin (5 μM in the presence of heparin, 10 μM in its absence), for a varying amount of time at 25° C. The same experiment is repeated twelve times, varying the incubation time from one experiment to another (from 10 seconds for the first to 5 hours for the last, such that the incubation time for a given experiment is equal to double that of the preceding one). At the end of each incubation, 190 μl of S2765 (200 μM in kinetics buffer) are added, and the residual amidolytic activity is measured by recording the variation in the absorbance at 405 nm as a function of time (i.e. the initial rate of hydrolysis of the S2765) using an MR5000 microplate reader. […]

[8] = target: T1, antithrombin (purified from human …); test: SDS-PAGE of covalent complexes, 1 µM derivative, 2 µM antithrombin, 2 units/ml heparin
Procedure: The incubation is sustained for one hour at 25° C., and the reaction mixture is analysed by polyacrylamide gel electrophoresis (10%, crosslinking 29/1), after denaturation and reduction of the sample. After staining with Coomassie blue, the presence of covalent complexes between the (inactivated) form of the factor X derivative and the antithrombin results in a decrease in the intensity of the band corresponding to antithrombin (60 kDa), a decrease in the intensity of the band corresponding to the activated form of the factor X derivative (31 kDa), and the appearance of a new band of higher molecular weight (approximately 100 kDa) corresponding to the covalent complex.

Molecule | kon (D-Phe-Phe-Arg-CH3Cl [1]) [M⁻¹ s⁻¹] | kon [3] [M⁻¹ s⁻¹] | kon [4] [M⁻¹ s⁻¹] | coefficient of acceleration of pNA release by the thrombin generated by the prothrombinase complex (+factor Va) (factor Va (KORDIA)) | coefficient of acceleration of pNA release by the thrombin generated by the activated factor X derivative alone (-factor Va) [2] | also measured
activated form of the factor X from plasma (from UniProt P00742 41-179; P00742 235-488) (enzyme) | 2300 |  |  |  |  | 
thrombin |  |  |  |  |  | cleavage of the factor X derivative by thrombin (FX-recombinant (zymogen)): the FX-recombinant is not detectably cleavable by thrombin (ND); kcat/Km (M^-1 s^-1) for the activation of the factor X derivative by thrombin (GDX-AVG (zymogen)): 1 10^2 (±9%); kcat/Km (M^-1 s^-1) for the activation of the factor X derivative by thrombin (GDX-IFG (zymogen)): < 1 M⁻¹ s⁻¹; kcat/Km (M^-1 s^-1) for the activation of the factor X derivative by thrombin (GDX-IVG (zymogen)): < 1 M⁻¹ s⁻¹; kcat/Km (M^-1 s^-1) for the activation of the factor X derivative by thrombin (GDX-SFR (zymogen)): 4 10^3 (±27%); kcat/Km (M^-1 s^-1) for the activation of the factor X derivative by thrombin (GDX-SVG (zymogen)): < 1 M⁻¹ s⁻¹
activated form of the GD-FX derivative (enzyme, human, domain: two EGF domains;domain: catalytic domain) light: EDQVDPRLIDGKDGDQCETSPCQNQGKCKDGLGEYTCTCLEGFEGKNCELFTRKLCSLDNGDCDQFCHEEQNSVVCSCARGYTLADNGKACIPTGPYPCGKQTLER heavy: IVGGQECKDGECPWQALLINEENEGFCGGTILSEFYILTAAHCLYQAKRFKVRVGDRNTEQEEGGEAVHEVEVVIKHNRFTKETYDFDIAVLRLKTPITFRMNVAPACLPERDWAESTLMTQKTGIVSGFGRTHEKGRQSTRLKMLEVPYVDRNSCKLSSSFIITQNMFCAGYDTKQEDACQGDSGGPHVTRFKDTYFVTGIVSWGEGCARKGKYGIYTKVTAFLKWIDRSMKTRGLPKAKSHAPEVITSSPLKEQKLISEEDLN | 2230 | 12000 | 1.3e+07 | 4.2 10^-4 (±2%) | 8.8 10^-6 (±2%) | fold increase of the rate of activation of the prothrombin on addition of factor Va (factor Va (KORDIA)): the addition of factor Va increases the rate of activation of the prothrombin 50-fold and 10-fold respectively
activated form of the GDX-AVG derivative (enzyme, human, domain: two EGF domains;domain: catalytic domain) light: EDQVDPRLIDGKDGDQCETSPCQNQGKCKDGLGEYTCTCLEGFEGKNCELFTRKLCSLDNGDCDQFCHEEQNSVVCSCARGYTLADNGKACIPTGPYPCGKQTLER heavy: AVGGQECKDGECPWQALLINEENEGFCGGTILSEFYILTAAHCLYQAKRFKVRVGDRNTEQEEGGEAVHEVEVVIKHNRFTKETYDFDIAVLRLKTPITFRMNVAPACLPERDWAESTLMTQKTGIVSGFGRTHEKGRQSTRLKMLEVPYVDRNSCKLSSSFIITQNMFCAGYDTKQEDACQGDSGGPHVTRFKDTYFVTGIVSWGEGCARKGKYGIYTKVTAFLKWIDRSMKTRGLPKAKSHAPEVITSSPLKEQKLISEEDLN |  |  |  | 3.1 10^-5 (±1%) | 9.6 10^-7 (±2%) | rate of activation of the prothrombin with factor Va, against the non-mutated homologue (GDX-IVG) (factor Va (KORDIA)): this is now only 13 times less than that obtained for the activated form of its non-mutated homologue (GDX-IVG); fold decrease of kon against its non-mutated homologue (no heparin) [5]: > 1000 times less; fold decrease of kon against the activated form of the factor X from plasma (D-Phe-Phe-Arg-CH3Cl [6]): 1000 times less; kon [7]: 300 M⁻¹ s⁻¹
activated form of the GDX-IFR derivative (enzyme, human, domain: two EGF domains;domain: catalytic domain) light: EDQVDPRLIDGKDGDQCETSPCQNQGKCKDGLGEYTCTCLEGFEGKNCELFTRKLCSLDNGDCDQFCHEEQNSVVCSCARGYTLADNGKACIPTGPYPCGKQTLER heavy: IFRGQECKDGECPWQALLINEENEGFCGGTILSEFYILTAAHCLYQAKRFKVRVGDRNTEQEEGGEAVHEVEVVIKHNRFTKETYDFDIAVLRLKTPITFRMNVAPACLPERDWAESTLMTQKTGIVSGFGRTHEKGRQSTRLKMLEVPYVDRNSCKLSSSFIITQNMFCAGYDTKQEDACQGDSGGPHVTRFKDTYFVTGIVSWGEGCARKGKYGIYTKVTAFLKWIDRSMKTRGLPKAKSHAPEVITSSPLKEQKLISEEDLN |  |  |  | 3.3 10^-6 (±1%) |  | binding result [8]: binds
activated form of the GDX-SVG derivative (enzyme, human, domain: two EGF domains;domain: catalytic domain) light: EDQVDPRLIDGKDGDQCETSPCQNQGKCKDGLGEYTCTCLEGFEGKNCELFTRKLCSLDNGDCDQFCHEEQNSVVCSCARGYTLADNGKACIPTGPYPCGKQTLER heavy: SVGGQECKDGECPWQALLINEENEGFCGGTILSEFYILTAAHCLYQAKRFKVRVGDRNTEQEEGGEAVHEVEVVIKHNRFTKETYDFDIAVLRLKTPITFRMNVAPACLPERDWAESTLMTQKTGIVSGFGRTHEKGRQSTRLKMLEVPYVDRNSCKLSSSFIITQNMFCAGYDTKQEDACQGDSGGPHVTRFKDTYFVTGIVSWGEGCARKGKYGIYTKVTAFLKWIDRSMKTRGLPKAKSHAPEVITSSPLKEQKLISEEDLN |  |  |  |  |  | binding result [8]: binds

Now from value to molecule, other results behind:

kon (D-Phe-Phe-Arg-CH3Cl [1]) [M⁻¹ s⁻¹] | kon [3] [M⁻¹ s⁻¹] | kon [4] [M⁻¹ s⁻¹] | Molecule | coefficient of acceleration of pNA release by the thrombin generated by the prothrombinase complex (+factor Va) (factor Va (KORDIA)) | coefficient of acceleration of pNA release by the thrombin generated by the activated factor X derivative alone (-factor Va) [2] | also measured
2250 | 5800 | 2e+07 | activated form of the GDX-IVG derivative (enzyme, human, domain: two EGF domains;domain: catalytic domain) light: EDQVDPRLIDGKDGDQCETSPCQNQGKCKDGLGEYTCTCLEGFEGKNCELFTRKLCSLDNGDCDQFCHEEQNSVVCSCARGYTLADNGKACIPTGPYPCGKQTLER heavy: IVGGQECKDGECPWQALLINEENEGFCGGTILSEFYILTAAHCLYQAKRFKVRVGDRNTEQEEGGEAVHEVEVVIKHNRFTKETYDFDIAVLRLKTPITFRMNVAPACLPERDWAESTLMTQKTGIVSGFGRTHEKGRQSTRLKMLEVPYVDRNSCKLSSSFIITQNMFCAGYDTKQEDACQGDSGGPHVTRFKDTYFVTGIVSWGEGCARKGKYGIYTKVTAFLKWIDRSMKTRGLPKAKSHAPEVITSSPLKEQKLISEEDLN | 1.1 10^-4 (±1%) | 2.8 10^-5 (±2%) | fold increase of the rate of activation of the prothrombin on addition of factor Va (factor Va (KORDIA)): the addition of factor Va increases the rate of activation of the prothrombin 50-fold and 10-fold respectively
 | 180 | 760000 | activated form of the GDX-IFG derivative (enzyme, human, domain: two EGF domains;domain: catalytic domain; Position 236 counted from the printed Ile235 = P1′) light: EDQVDPRLIDGKDGDQCETSPCQNQGKCKDGLGEYTCTCLEGFEGKNCELFTRKLCSLDNGDCDQFCHEEQNSVVCSCARGYTLADNGKACIPTGPYPCGKQTLER heavy: IFGGQECKDGECPWQALLINEENEGFCGGTILSEFYILTAAHCLYQAKRFKVRVGDRNTEQEEGGEAVHEVEVVIKHNRFTKETYDFDIAVLRLKTPITFRMNVAPACLPERDWAESTLMTQKTGIVSGFGRTHEKGRQSTRLKMLEVPYVDRNSCKLSSSFIITQNMFCAGYDTKQEDACQGDSGGPHVTRFKDTYFVTGIVSWGEGCARKGKYGIYTKVTAFLKWIDRSMKTRGLPKAKSHAPEVITSSPLKEQKLISEEDLN | 4.9 10^-6 (±1%) | 1.0 10^-7 (±2%) | fold decrease of kon against the non-mutated activated forms (no heparin) [5]: 66 times smaller; fold decrease of kon against the activated form of the factor X from plasma (D-Phe-Phe-Arg-CH3Cl [6]): 20 times lower
